Laboratory results taken from patent US6489299B2, “Methods for treatment of multiple sclerosis using peptide analogues at position 91 of human myelin basic protein” (Stanford University Medical Center, priority 1994, dated 2002).

What was measured:
[1] = tested on: lymph node cells (LNC) reactive to MBP (87-99); assay: Antigen-specific lymph node cell proliferation assay; assay type: cell-based, Lewis rat; details: 10 μM peptide, 3 days, [3H]-thymidine; FIG. 4
Method: FIG. 4 is a graph displaying the proliferative response of MBP-reactive lymph node cells to position 91-substituted analogues. Two different substitutions were tested. The proliferative response of lymph node cells to 10 μM of MBP (87-99), motilin, A91 or K91 was determined. Proliferation is shown as counts per minute. BKG, no peptide added; 87-99, MBP (87-99); motilin, an unrelated peptide; A91, peptide analogue with alanine at position 91; K91, peptide analogue with D-lysine at position 91.
As an alternative to the use of T cell lines as described above, draining lymph node cells from Lewis rats immunized with MBP (87-99) may be used. […] Cultures are harvested on fiberglass filters and counted in a scintillation counter. Mean CPM and the standard error of the mean are calculated from data determined in triplicate cultures. […]
For the assay, 100 μl of the lymph node suspension was added to 96-well flat-bottom wells in the presence of an equal volume of medium containing 10 μM of various peptides (including: motilin as a negative control; MBP87-99; medium only, or alanine or D-amino acid substituted at position 91). […] The plates were then harvested with a Matrix filtermate harvester (Packard) and counted using an Automatic Direct Beta Counter (Packard). Mean cpm and the standard error of the mean were calculated from triplicate wells.

[2] = tested on: MBP specific rat T cell line (NBI); assay: Antigen-specific T cell line proliferation assay; assay type: cell-based; details: three days, [3H]-thymidine; analogues at 20-120 μM; FIG. 3
Method: FIG. 3 is a graph displaying the proliferative response of the T cell line NBI to position 91-substituted analogues. Ten different substitutions were tested. The proliferative response of NBI in response to concentrations of analogues ranging from 0 to 150 μM was determined. Proliferation is shown as counts per minute. Standard errors of the mean were less than ±10%. MBP 87-99; peptides from human myelin basic protein containing residues 87 to 99; K, lysine; R, arginine; N, asparagine; H, histidine; L, leucine; S, serine; G, glycine; k, D-lysine; E, glutamic acid; F, phenylalanine; and A, alanine.
In the direct proliferation assay, MBP (87-99) reactive T cell lines may be used as target cells. T cell lines are established from lymph nodes taken from rats injected with MBP (87-99). […] After 5 to 6 passages in this manner, the proliferative potential of the cell lines are determined. […] Cultures are harvested and incorporated counts determined. Mean CPM and standard error of the mean are calculated from triplicate cultures. […]
For this antigen-specific proliferation assay, T cell lines as established in Example 3 were used. […] Cultures were harvested on fiberglass filters and the proliferative response expressed as CPM±SD or as stimulation index (SI) (mean CPM from test cultures divided by mean CPM from control cultures).

EAE = details: rat, in vivo
Method: In addition, as a safety measure, but not essential to this invention, suitable peptide analogues may be tested for direct induction of EAE. As described in detail in Example 2, various amounts of peptide analogues are injected at the base of the tail of rats, and the rats examined daily for signs of EAE. A peptide analogue which is not considered to cause EAE has a mean cumulative score of less than or equal to 1 over seven days when 1 mg (5 mg/kg) in complete Freund's adjuvant is injected.
MBP peptides and analogues were dissolved in phosphate-buffered saline (PBS) and emulsified with an equal volume of incomplete Freund's adjuvant supplemented with 4 mg/ml heat-killed Mycobacterium tuberculosis H37Ra in oil (Difco Laboratories, Inc., Detroit, Mich.). Rats were immunized subcutaneously in the hind foot pads with 0.1 ml of the emulsion and were monitored for clinical signs daily by an observer blind to the treatment protocol. For intravenous injections MBP peptides and analogues were dissolved in normal saline. EAE was scored as follows: 0, clinically normal; 1, flaccid tail; 2, hind limb paralysis; 3, front and hind limb paralysis.
The ability of peptide analogues to cause EAE is assessed in vivo. Rats were injected with MBP (87-99) or (91K>A) peptide analogue as described in Example 2. Animals were monitored daily for evidence of EAE. Rats receiving MBP (87-99) had 100% incidence (18/18 rats) of EAE with a mean maximum clinical score of 2.4±0.2. In contrast, 0/12 rats receiving the peptide analogue (91k>A) had EAE.

multiple sclerosis = details: human, in vivo; cited from earlier work

**Q.** Which results are given for `CC[C@H](C)[C@H](NC(=O)[C@@H]1CCCN1C(=O)[C@@H](NC(=O)[C@@H](N)Cc1ccccc1)C(C)C)C(=O)N[C@@H](Cc1ccccc1)C(=O)N[C@H](C(=O)N[C@@H](Cc1ccc(O)cc1)C(=O)NCC(=O)N[C@@H](CCC(=O)O)C(=O)N[C@@H](CC(C)C)C(=O)N[C@@H](CCC(N)=O)C(=O)N[C@@H](CCCNC(=N)N)C(=O)N[C@@H](CCSC)C(=O)N[C@@H](CCC(N)=O)C(=O)N[C@@H](CCC(=O)O)C(=O)N[C@@H](CCCCN)C(=O)N[C@@H](CCC(=O)O)C(=O)N[C@@H](CCCNC(=N)N)C(=O)N[C@@H](CC(N)=O)C(=O)N[C@@H](CCCCN)C(=O)NCC(=O)N[C@@H](CCC(N)=O)C(=O)O)[C@@H](C)O` [motilin, reference compound]?
**A.** proliferative response of MBP (87-99)-reactive lymph node cells (in words) [1]: failed to respond as well; proliferation of the MBP specific rat T cell line (in words) [2]: does not stimulate proliferation at any dose

**Q.** What does the source list for “MBP(68-88): EAE-inducing myelin basic protein peptide from a different region (KRTADPKNAWQDAHPADPGSR; UniProt P02686 68-88, looked up, fragment) [reference compound]”?
**A.** EAE Incidence (EAE): 6/6; EAE Mean Maximum Clinical Score (EAE): 3 ± 0

B1: IFN-γ: cytokine administered to MS patients in a pilot study (protein, UniProt P01579 24-161, looked up)
Interferon gamma: QDPYVKEAENLKKYFNAGHSDVADNGTLFLGILKNWKEESDRKIMQSQIVSFYFKLFKNFKDDQSIQKSVETIKEDMNVKFFNSNKKKRDDFEKLTNYSVTDLNVQRKAIHELIQVMAELSPAAKTGKRKRSQMLFRG
**Q.** Which “patients with a clinical exacerbation within one month after initiation of treatment” value (multiple sclerosis) does the source give for B1 here?
**A.** 7 of 18

**Q.** And the “specific response to MBP (in words)” value (multiple sclerosis)?
**A.** increase
